# Measurements reported in patent EP4778588A2, “ENZYMATICALLY CLEAVABLE LINKER AND LIGAND-ERIBULIN CONJUGATE CONTAINING SAME” (priority 2022, dated 2024).
# B1: Bemarituzumab MC-VAGGFG-PAB-Eribulin: Bemarituzumab conjugated with the linker-toxin MC-VAGGFG-PAB-Eribulin (conjugate, chains of the INN, looked up)
# VH: QVQLVQSGAEVKKPGSSVKVSCKASGYIFTTYNVHWVRQAPGQGLEWIGSIYPDNGDTSYNQNFKGRATITADKSTSTAYMELSSLRSEDTAVYYCARGDFAYWGQGTLVTVSS
# VL: DIQMTQSPSSLSASVGDRVTITCKASQGVSNDVAWYQQKPGKAPKLLIYSASYRYTGVPSRFSGSGSGTDFTFTISSLQPEDIATYYCQQHSTTPYTFGQGTKLEIK
# modifications: MC-VAGGFG-PAB-Eribulin
# Test system: KATO III cell line (human gastric cancer cells)
# Assay: Cell viability test (same method as for Calu-6) in KATO III cells
# Assay type: cell-based
# Conditions: average DAR of 2 to 3, read-out: EC/IC50 values for cell viability
# Procedure: Human Calu-6 cells (manufacturer: Procell, product code: CL-327, human lung cancer cells) were resuscitated and seeded into a 96-well culture plate. The culture medium used was DMEM/F12 (manufacturer: Hyclone, product code: SH30023.01), supplemented with 10% FBS (manufacturer: Gibco, product code: 10099141). Each well contained 2,500 cells in 150 µl of medium. The plate was incubated at 37°C in a 5% CO2 incubator. Approximately 20 hours later, 50 µl of medium containing different antibody-drug conjugates were added to each well, setting the final drug concentrations at 0 to 100 nM across 12 dilution gradients (initial concentration: 100 nM; subsequent 5-fold serial dilutions across 10 gradients; last gradient containing no drug, and each sample was tested in duplicate wells). […] After a 2-minute reaction, fluorescence intensity was measured using a Tecan Spark instrument, following the reagent kit's recommended protocol. […] EC/IC50 values were calculated using four-parameter fitting.
# Further, following the above examples, antibody-drug conjugates (ADCs) of Trastuzumab and Bemarituzumab conjugated with the linker-toxin MC-VAGGFG-PAB-Eribulin were prepared for validation. […] Activity was measured using the SK-BR-3 cell line (human breast cancer cells) and KATO III cell line (human gastric cancer cells).
molecule,measurement,value
B1,IC50,0.097 nM
